Measurements as given in patent US7329737 (DYAX, dated 2008).

These binders were tested against T1, hK1 (human tissue kallikrein 1), recombinant (human, UniProt P06870 25-262) (assay: SPR).
T1 construct: Expressed in P. pastoris from KLK1 cDNA and purified; enzymatically active; also called KLK1; Recombinant (Pichia) Kallikrein

Binder	Kd	koff	kon
M0110-H11 (Fab, V domains shown) VH: EVQLLESGGGLVQPGGSLRLSCAASGFTFSHYKMEWVRQAPGKGLEWVSRIRPSGGVTKYADSVKGRFTISRDNSKNTLYLQMNSLRAEDTAVYYCTRGGLWDAFDIWGQGTMVTVSS VL: DIQMTQSPSSLSASVGDRVTITCRASQSISSYLNWYQQKPGKAPKLLIYAASSLQSGVPSRFSGSGSGTDFTLTISSLHPEDFATYYCQQTYSTLFTFGPGTKVHIKR	6.17 nM	0.00601 s⁻¹	975000 M⁻¹ s⁻¹
M0093-G06 (Fab, V domains shown) VH: EVQLLESGGGLVQPGGSLRLSCAASGFTFSNYHMDWVRQAPGKGLEWVSVIGPSGGFTRYADSVKGRFTISRDNSKNTLYLQMNSLRAEDTAVYYCARALGGSLDYWGQGTLVTVSS VL: AQSALTQPRSVSGSLGQSVTISCTGSTSDVGGYTYVSWYQQEPGKAPKLMIHDVSKRPSGVPDRFSGSKSGNTASLIISGLQAEDEADYYCCSYAGSYSYVFGTGTKVTVLG	8.4 nM	0.00313 s⁻¹	372000 M⁻¹ s⁻¹
M0127-C06 (Fab, V domains shown) VH: EVQLLESGGGLVQPGGSLRLSCAASGFTFSNYPMHWVRQAPGKGLEWVSYIGPSGGWTRYADSVKGRFTISRDNSKNTLYLQMNSLRAEDTAVYYCARAPSGYWGQGTLVTVSS VL: not shown	8.69 nM	0.00575 s⁻¹	662000 M⁻¹ s⁻¹
M0135-C11 (Fab, V domains shown) VH: EVQLLESGGGLVQPGGSLRLSCAASGFTFSNYSMQWVRQAPGKGLEWVSGIRPSGGSTRYADSVKGRFTISRDNSKNTLYLQMNSLRAEDTAVYYCAVSTGGYYYGMDVWGQGTTVTVSS VL: DIQMTQSPSSVSASVGDRVTITCRASQGISSWLAWYQQKPGKAPKLLIYAASSLQSGVPSRFSGSGSGTDFTLTISSLQPEDFATYYCQQANSFPSLTFGGGTKVEIKR	6.85 nM	0.00231 s⁻¹	337000 M⁻¹ s⁻¹
M0107-D01 (Fab, V domains shown) VH: EVQLLESGGGLVQPGGSLRLSCAASGFTFSWYGMGWVRQAPGKGLEWVSVIRPSGGTTRYADSVKGRFTISRDNSKNTLYLQMNSLRAEDTAVYYCARGGRYYSLDYWGQGTLVTVSS VL: AQSELTQPASVSGPPGQSITISCTGTSSDVGGYNYVSWYQQHPGKAPKLIIYEVSNRPSGVSYRFSASKSDNTASLTISGVQAEDEADYYCSSYKRGGTYVFGTGTTVIVL	9.06 nM	0.00812 s⁻¹	896000 M⁻¹ s⁻¹
M0105-B06 (Fab, V domains shown) VH: EVQLLESGGGLVQPGGSLRLSCAASGFTFSHYAMGWVRQAPGKGLEWVSRIWPSGGHTQYADSVKGRFTISRDNSKNTLYLQMNSLRAEDTAMYYCATGYSSTWGAFDIWGQGTMVTVSS VL: DIQMTQSPSSLSASVGDRVTLTCRASQSIANYLNWYQQKPGKAPKLLVYAASRLHSGVPSRFSGRGSGTDFTLTITSLEPDDLATYYCQQSHASPLTFGGGTKVEIKR	8.81 nM	0.0036 s⁻¹	409000 M⁻¹ s⁻¹
M0138-E12 (Fab, V domains shown) VH: EVQLLESGGGLVQPGGSLRLSCAASGFTFSWYVMRWVRQAPGKGLEWVSSIYPSGGQTRYADSVKGRFTISRDNSKNTLYLQMNSLRAEDTAMYYCATGYSSTWGAFDIWGQGTMVTVSS VL: AQSALTQPASVSGSPGQSITISCSGTSSDVGAYYHVSWYQQHPGKAPKLMIYEVTNRPSGISNRFSGSKSGNTASLTISGLQADDEADYFCSSYTTSNTLVFGGGTKVTVLG	10 nM	0.00149 s⁻¹	148000 M⁻¹ s⁻¹
M0101-E01 (Fab, V domains shown) VH: EVQLLESGGGLVQPGGSLRLSCAASGFTFSPYIMSWVRQAPGKGLEWVSSIVSSGGVTLYADSVKGRFTISRDNSKNTLYLQMNSLRAEDTAVYYCTKNINLRYDILTGYFDIWGQGTTVTVSS VL: DIQMTQSPSSVSASVGDRVTITCRAGQNIYYWLAWYQQKPGKAPQLLIYAASSLQSGVPSRFSGSGSGTDFTLTISSLQPEDFATYYCQQAKSFPVTFGGGTKVEIKR	9.74 nM	0.000941 s⁻¹	96600 M⁻¹ s⁻¹
M0095-A11 (Fab, V domains shown) VH: EVQLLESGGGLVQPGGSLRLSCAASGFTFSPYMMGWVRQAPGKGLEWVSSIRSSGGATAYADSVKGRFTISRDNSKNTLYLQMNSLRAEDTATYYCARVGVWYGMDVWGQGTTVTVSS VL: DIQMTQSPATLSLSPGERATLSCRASQSVSSYLAWYQQKPGQAPRLLIYDASNRATGIPARFSGSGSGTDFTLTISSLEPEDFAVYYCQQRSNWPPYTFGQGTKLEIKR	7.22 nM	0.00379 s⁻¹	525000 M⁻¹ s⁻¹
M0109-E08 (Fab, V domains shown) VH: EVQLLESGGGLVQPGGSLRLSCAASGFTFSHYTMLWVRQAPGKGLEWVSSIYSSGGSTYYADSVKGRFTISRDNSKNTLYLQMNSLRAEDTAVYYCARVGVWYGMDVWGQGTTVTVSS VL: not shown	10.1 nM	0.00889 s⁻¹	880000 M⁻¹ s⁻¹
M0109-A11 (Fab, V domains shown) VH: EVQLLESGGGLVQPGGSLRLSCAASGFTFSNYTMTWVRQAPGKGLEWVSVIYPSGGHTTYADSVKGRFTISRDNSKNTLYLQMNSLRAEDTAMYYCARGGRWFSLDYWGQGTLVTVSS VL: AQSELTQPASVSGSPGQSITISCTGTSSDVGGYNYLSWYQQHPGKAPKLMIYGVSNRPSGVSTRFSGSKSGNTASLTISGLQAEDEADYYCSSYTSTGTRVFGGGTRLTVLG	7.45 nM	0.0035 s⁻¹	470000 M⁻¹ s⁻¹
M0107-F11 (Fab, V domains shown) VH: EVQLLESGGGLVQPGGSLRLSCAASGFTFSHYQMHWVRQAPGKGLEWVSSIRPSGGRTAYADSVKGRFTISRDNSKNTLYLQMNSLRAEDTAVYYCARVGVWYGMDVWGQGTTVTVSS VL: DIQMTQSPGTLSLSPGERATLSCRASQSVSGSYLAWYQQKPGQAPSLLIYGAYSRATGIPDRFSGSGSGTDFTLTISRLEPEDFAVYYCQHYGSSPRTFGGGTKVEIKR	9.71 nM	0.0066 s⁻¹	680000 M⁻¹ s⁻¹
M0097-D04 (Fab, V domains shown) VH: EVQLLESGGGLVQPGGSLRLSCAASGFTFSHYFMHWVRQAPGKGLEWVSYISSSGGLTGYADSVKGRFTISRDNSKNTLYLQMNSLRAEDTAVYYCARRGPVYYYDSSGSHSAFDIWGQGTMVTVS VL: AQSELTQPPSASGTPGQRVTISCSGSSSNIGSNYVYWYQQLPGMAPKLLIYRNNQRPSGVPDRFSGSKSGTSASLAISGLRSEDEADYYCAAWDDSMSGVVFGGGTKLTVLS	8.28 nM	0.00168 s⁻¹	203000 M⁻¹ s⁻¹
M0104-B12 (Fab, V domains shown) VH: EVQLLESGGGLVQPGGSLRLSCAASGFTFSIYAMIWVRQAPGKGLEWVSSIYSSGGPTQYADSVKGRFTISRDNSKNTLYLQMNSLRAEDTAVYYCARGRRTYYYDSSGYYKYAAFDIWGQGTMVTVSS VL: DIQMTQSPSSLSASVGDRVTITCRASQAISNYLAWYQQQPGKVPKLLISAASTLQSGVPSRFSGSGSGTDFTLSISSLQPEDVATYYCQTYYSVPFTFGPGTKVDFKR	7.41 nM	0.00171 s⁻¹	230000 M⁻¹ s⁻¹

Next, values leading:

Kd	koff	kon	Binder
8.5 nM	0.00355 s⁻¹	418000 M⁻¹ s⁻¹	M0108-E11 (Fab, V domains shown) VH: EVQLLESGGGLVQPGGSLRLSCAASGFTFSNYSMMWVRQAPGKGLEWVSSIYPSGGFTKYADSVKGRFTISRDNSKNTLYLQMNSLRAEDTAVYYCARVGFYGGFVWGQGTTVTVSS VL: AQYELTQPASVSGSPGQSITISCTATSSDLGSYNFVSWYQQHPDKAPKLMIFEVSRRPSGVSNRFSGSKSGNTASLTISGLQAEDEADYYCCSYAGSNTYVFGTGTKVTVLG
6.8 nM	0.00101 s⁻¹	148000 M⁻¹ s⁻¹	M0098-E01 (Fab, V domains shown) VH: EVQLLESGGGLVQPGGSLRLSCAASGFTFSMYGMTWVRQAPGKGLEWVSGISPSGGRTYYADSVKGRFTISRDNSKNTLYLQMNSLRAEDTAVYYCAKHRRDYVWWTYGMDVWGQGTTVTVSS VL: DIQMTQSPATLSLSPGERATLSCRASQSVSGFLAWYQQKPGQAPRLLIYDASNRATGIPARFSGSGSGTDFTLTITRLEPEDFAVYYCQQYGDSSPITFGPGTRLEIKR
10.1 nM	0.00711 s⁻¹	707000 M⁻¹ s⁻¹	M0104-B03 (Fab, V domains shown) VH: EVQLLESGGGLVQPGGSLRLSCAASGFTFSNYTMFWVRQAPGKGLEWVSSIYPSGGITRYADSVKGRFTISRDNSKNTLYLQMNSLRAEDTAVYYCARVSFWNAFDIWGQGTMVTVSS VL: not shown
7.57 nM	0.00206 s⁻¹	272000 M⁻¹ s⁻¹	M0135-E10 (Fab, V domains shown) VH: EVQLLESGGGLVQPGGSLRLSCAASGFTFSWYRMSWVRQAPGKGLEWVSSISPSGGPTKYADSVKGRFTISRDNSKNTLYLQMNSLRAEDTAVYYCARPSGDSSVYRPFASWGQGTLVTVSS VL: not shown
6.38 nM	0.00134 s⁻¹	210000 M⁻¹ s⁻¹	M0110-D11 (Fab, V domains shown) VH: EVQLLESGGGLVQPGGSLRLSCAASGFTFSHYLMYWVRQAPGKGLEWVSRIGPSGGWTKYADSVKGRFTISRDNSKNTLYLQMNSLRAEDTAVYYCARVGVWYGMDVWGQGTTVTVSS VL: AQSELTQPASVSGSPGQSITISCTGTSTDVGGYNYVSWYQKHPGKAPKLMIYDVSNRPSGVSNRFSGSKSGNTASLTISGLQAEDEADYYCSSYTNTITVVFGGGTKLTVLG
7.27 nM	0.00158 s⁻¹	218000 M⁻¹ s⁻¹	M0092-F08 (Fab, V domains shown) VH: EVQLLESGGGLVQPGGSLRLSCAASGFTFSHYPMIWVRQAPGKGLEWVSGIYSSGGTTKYADSVKGRFTISRDNSKNTLYLQMNSLRAEDTAVYYCARVGVWYGMDVWGQGTTVTVSS VL: DIQMTQSPATLSLSPGERATLSCGASQSVSSSYLAWYQQKPGLAPRLLIYDASSRATGIPDRFSGSGSGTDFTLTISSLQPEDFATYYCLHDYNFPFTFGPGTKVDIKR
7.8 nM	0.00307 s⁻¹	394000 M⁻¹ s⁻¹	M0130-B02 (Fab, V domains shown) VH: EVQLLESGGGLVQPGGSLRLSCAASGFTFSNYSMVWVRQAPGKGLEWVSRIYSSGGSTHYADSVKGRFTISRDNSKNTLYLQMNSLRAEDTAVYYCARVGVWYGMDVWGQGTTVTVSS VL: AQSALTQPASVSGSPGQSITISCTDTSGNVGSYNLVSWYQQHPDKAPKLMIFEVSRRPSGVSDRFSGSKSGNTASLTISGLQAEDEADYYCCSYAGSNTYVFGTGTKVTVLG
